The source of these data is article PMC11879689, “Integrative in silico and biochemical analyses demonstrate direct Arl3-mediated ODA16 release from the intraflagellar transport machinery” (The Journal of Biological Chemistry, 2025).

Test [1] has as its target T1, full-length CrODA16 (CrODA16fl) (Chlamydomonas reinhardtii, UniProt Q3Y8L7 1-446).
T1 construct: ODA16, Chlamydomonas reinhardtii, full length (N-terminal domain residues 1-80, C-terminal beta-propeller residues 80-445); it may be the same protein as CrODA16-HT
T1 sequence (looked up): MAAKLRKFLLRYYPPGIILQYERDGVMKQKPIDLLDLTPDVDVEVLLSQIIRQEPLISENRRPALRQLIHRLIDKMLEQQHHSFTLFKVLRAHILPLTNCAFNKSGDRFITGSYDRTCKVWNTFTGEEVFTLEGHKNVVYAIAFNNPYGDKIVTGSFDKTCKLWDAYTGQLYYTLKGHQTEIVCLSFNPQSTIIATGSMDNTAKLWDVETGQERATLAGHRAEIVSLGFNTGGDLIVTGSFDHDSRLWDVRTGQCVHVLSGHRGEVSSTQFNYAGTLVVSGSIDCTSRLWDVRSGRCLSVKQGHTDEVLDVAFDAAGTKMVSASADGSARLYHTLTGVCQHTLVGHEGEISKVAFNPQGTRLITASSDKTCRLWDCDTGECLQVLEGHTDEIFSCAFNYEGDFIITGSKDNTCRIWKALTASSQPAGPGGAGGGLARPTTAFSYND
In words: ITC; 25 °C, MicroCal iTC200; 10 mM HEPES pH 7.5, 200 mM NaCl, 0.5 mM TCEP; 20 μM CrODA16 in the cell, 200 μM IFT46 peptide or CrIDA3 in the syringe. (In general: In ITC the heat of successive injections is recorded.)

Test [2] addresses CrODA16 C-terminal β-propeller, CrODA16C(80-423) (Chlamydomonas reinhardtii) (UniProt Q3Y8L7). Described as above.
Test [3] concerns the target ODA16 (Chlamydomonas reinhardtii) (UniProt Q3Y8L7). Briefly: ITC. To be noted: cited from earlier work.
Test [4] concerns the target T2, hexa-His-tagged CrODA16 (CrODA16-HT) (Chlamydomonas reinhardtii, UniProt Q3Y8L7 1-446).
T2 construct: ODA16, Chlamydomonas reinhardtii; Bait on nickel resin
T2 sequence (looked up): T1 sequence (looked up)
In words: pull-down; CrODA16-HT (10 μM) immobilised on nickel resin, one prey (20–30 μM), 1 h 4 °C; 10 mM HEPES pH 7.5, 200 mM NaCl, 2 mM MgCl2, 1 mM DTT; eluted with 500 mM imidazole, SDS-PAGE; CrArl3 nucleotide-free. Particulars: both partners purified.

For test [5], the target named is T2, hexa-His-tagged CrODA16 (CrODA16-HT). In words: pull-down; CrODA16-HT immobilised on nickel resin; two preys added together (CrIFT46 with CrIDA3, also at 3:1 excess of CrIFT46; CrIFT46 with CrArl3), beside each prey alone. To be noted: both partners purified.
Test [6] has as its target T1, full-length CrODA16 (CrODA16fl). Briefly: pull-down; competitive binding (titration) assay: GST-tagged bait (10 μM) pre-complexed with CrODA16 (20 μM) on GSH resin, washed, then untagged competitor at rising concentrations, 1 h 4 °C; eluted with 33 mM glutathione, SDS-PAGE. Particulars: both partners purified.

Read-outs that look alike come from different tables or passages of the source.

For the molecule “CrIDA3 (residues 1-166 and 241-366), untagged (domain or fragment)”, in test [1], the Kd (usually the concentration at which binding is half-saturated) came out at 1770 nM and the stoichiometry N (commonly the number of molecules, sites or subunits per partner or assembly) was 0.996. In addition, the dissociation constant Kd in test [2] turned out to be 288 nM.
Take IFT46 (from UniProt A2T2X4): the Kd in test [3] was 200 nM.

B1: CrArl3_Q70L (GTP-locked, full length) (enzyme, Chlamydomonas reinhardtii, UniProt A8ISN6 1-177, looked up)
chain: MGLLSLIRGLKKKEGEARILVLGLDNAGKTTILKALSEEDITTITPTQGFNIKSLSRDGFNLKIWDIGGLKSIRPYWRNYFDQTDALIYVIDSADSKRLSESEFELTELLQEEKMTGVPLLVFANKQDLVGALAADEIASTLDLTSIRDRPWQIQACSAKQGTGLKEGMEWMMKQVK
notes: Arl3, Chlamydomonas reinhardtii, with Q70L; codon-optimised synthetic gene; Cloned with C-terminal TEV-His8; Used nucleotide-free or loaded with GTP; also called CrArl3_Q70L-FL
Regarding B1, the binding result in test [4] was “binds”.

B2: CrIFT46(23-44) peptide (peptide, UniProt A2T2X4 23-44, looked up)
peptide: RSQVVQNQPHDEEVNLSESESF
notes: IFT46, Chlamydomonas reinhardtii, residues 23-44; R23 and F44 mark the ends of the peptide; also called IFT46 peptide; source: synthetic peptide
As to B2, the Kd in test [1] (both partners purified) was determined as 1000 ± 380 nM.

B3: CrIFT46 (wild type, untagged) (natural protein, Chlamydomonas reinhardtii, UniProt A2T2X4 1-344, looked up)
chain: MDDSMDYPDRDGDDLDQFQGTARSQVVQNQPHDEEVNLSESESFAGADEPPAAPRDASLIESHDMDEGPAAPARTLSPTGYEAGKHAPGGIANSDEAPPGAYNAQEYKHLNVGEDVRELFSYIGRYKPQTVELDTRIKPFIPDYIPAVGGIDEFIKVPRPDTKPDYLGLKVLDEPAAKQSDPTVLTLQLRQLSKEAPGAKADMVGRLEHTDENKAKKIQQWIASINDIHKAKPAATVNYSKRMPEIEALMQEWPPEVETFLKTMHMPSGDVELDIKTYARLVCTLLDIPVYDDPVESLHVLFTLYLEFKNNPIFRQHMEMENKLDGMSGGGGGMMGGGADVLGL
notes: IFT46, Chlamydomonas reinhardtii; also called WT CrIFT46
Consider B3, for which the binding result in test [5] and in test [6] was “binds” each time.

B4: GST-CrIFT46 (natural protein, Chlamydomonas reinhardtii, UniProt A2T2X4 1-344, looked up)
chain: B3 chain
notes: IFT46, Chlamydomonas reinhardtii; also called GST-tagged CrIFT46
B4: the binding result in test [6] is “binds”.
